Here are results for 15 substances from the Human Domainome abundance scans (Beltran et al. 2025).

± gives the uncertainty stated by the source.

A short description of this series: abundance fitness (aPCA) (normalised: wild type 0, dead -1); higher = more abundant; growth selection in yeast, the domain comes from the species named. Conditions: Homo sapiens.
Turning to “Telomeric repeat-binding factor 2 A513T, Q15554”, the abundance fitness was found to be 0.25 ± 0.098. Take “Telomeric repeat-binding factor 2 A514R, Q15554”: the abundance fitness is -0.428 ± 0.11. “Telomeric repeat-binding factor 2 E509V, Q15554”: the abundance fitness was -0.353 ± 0.076. For “Telomeric repeat-binding factor 2 I529L, Q15554” the value was -0.213 ± 0.079; for “Telomeric repeat-binding factor 2 K491R, Q15554”, -0.21 ± 0.065. For “Telomeric repeat-binding factor 2 K517Q, Q15554” the value was -0.035 ± 0.044; for “Telomeric repeat-binding factor 2 N518H, Q15554”, -0.227 ± 0.068; for “Telomeric repeat-binding factor 2 N523D, Q15554”, -0.199 ± 0.061.

In the case of “Telomeric repeat-binding factor 2 P520D, Q15554”, the abundance fitness is -0.564 ± 0.055. “Telomeric repeat-binding factor 2 Q490K, Q15554” displayed an abundance fitness of -0.247 ± 0.21. As to “Telomeric repeat-binding factor 2 S497D, Q15554”, the abundance fitness is 0.392 ± 0.099. Take “Telomeric repeat-binding factor 2 S516L, Q15554”: the abundance fitness stood at 0.222 ± 0.087. For “Telomeric repeat-binding factor 2 V522R, Q15554” the value was 0.031 ± 0.058; for “Telomeric repeat-binding factor 2 W499Q, Q15554”, -0.018 ± 0.095.

Regarding “Telomeric repeat-binding factor 2 Y507F, Q15554”, the abundance fitness is -0.559 ± 0.17.
